Reference: PMC7393355, “A FRET-based screening method to detect potential inhibitors of the binding of CNNM3 to PRL2” (Scientific Reports, 2020)

What was measured:
[1] = target: PRL3 (Homo sapiens) (UniProt O75365); details: cited from earlier work
[2] = target: CNNM3 CBS domain (residues 301-452) with YPet at its C-terminus (UniProt Q8NE01); assay: FRET competition (inhibition) assay; details: CNNM3-YPet 200 nM, CyPet-PRL2 200 nM, pre-incubation 20 min at R.T., control without competitor est. 98%, n = 6, read off a plot
Chain of CNNM3 CBS domain (residues 301-452) with YPet at its C-terminus (Q8NE01 301-452): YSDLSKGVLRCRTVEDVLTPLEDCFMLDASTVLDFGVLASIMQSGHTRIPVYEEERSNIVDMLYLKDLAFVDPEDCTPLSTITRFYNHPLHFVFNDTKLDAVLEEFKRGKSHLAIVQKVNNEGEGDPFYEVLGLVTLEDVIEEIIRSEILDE

Chain of non-fluorescence protein-tagged PRL2 (Q12974 whole entry, stated change not applied): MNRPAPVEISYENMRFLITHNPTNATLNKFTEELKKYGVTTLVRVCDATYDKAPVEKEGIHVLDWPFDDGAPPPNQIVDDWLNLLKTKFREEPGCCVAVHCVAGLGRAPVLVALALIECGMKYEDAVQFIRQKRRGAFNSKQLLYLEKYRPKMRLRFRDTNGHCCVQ
Chain of PRL3 (Homo sapiens) (O75365 1-170 C104E): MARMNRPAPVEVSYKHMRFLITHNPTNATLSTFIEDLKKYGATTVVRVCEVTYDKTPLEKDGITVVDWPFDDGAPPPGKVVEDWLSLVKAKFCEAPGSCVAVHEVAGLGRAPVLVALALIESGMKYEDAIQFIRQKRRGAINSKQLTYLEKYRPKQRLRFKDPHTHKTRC
Chain of CNNM3 (Q8NE01 whole entry): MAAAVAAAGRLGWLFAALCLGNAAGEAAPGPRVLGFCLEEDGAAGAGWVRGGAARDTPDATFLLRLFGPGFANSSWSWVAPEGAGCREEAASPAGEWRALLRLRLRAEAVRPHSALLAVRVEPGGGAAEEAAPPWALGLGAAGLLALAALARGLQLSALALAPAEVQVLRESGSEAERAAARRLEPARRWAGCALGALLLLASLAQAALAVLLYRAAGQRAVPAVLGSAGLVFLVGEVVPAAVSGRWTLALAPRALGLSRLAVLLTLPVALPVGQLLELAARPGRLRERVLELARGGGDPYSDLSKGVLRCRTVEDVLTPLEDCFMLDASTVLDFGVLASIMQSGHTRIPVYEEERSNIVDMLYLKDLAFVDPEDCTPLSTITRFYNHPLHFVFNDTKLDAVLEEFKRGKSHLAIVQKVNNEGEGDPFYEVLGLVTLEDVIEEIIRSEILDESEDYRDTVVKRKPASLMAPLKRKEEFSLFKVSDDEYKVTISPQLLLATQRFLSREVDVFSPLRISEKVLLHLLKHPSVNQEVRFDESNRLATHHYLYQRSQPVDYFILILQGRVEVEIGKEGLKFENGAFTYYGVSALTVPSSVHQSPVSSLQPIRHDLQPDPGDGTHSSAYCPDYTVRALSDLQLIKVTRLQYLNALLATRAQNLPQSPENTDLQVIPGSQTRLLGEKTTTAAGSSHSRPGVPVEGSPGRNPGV

Substance	Kd [1]	response ([2]; 1 µM untagged competitor, parent: est. 15)	response ([2]; 10 µM untagged competitor, parent: est. 11)
CNNM3 (from UniProt Q8NE01)	2800 nM		
non-fluorescence protein-tagged PRL2 (from UniProt Q12974-1) C107E		97%	76%
